Test results published in patent publication US20200141935A1, “SYSTEM, METHOD, APPARATUS AND DIAGNOSTIC TEST FOR PREGNANCY” (BARCELONA INSTITUTE FOR GLOBAL HEALTH, priority 2017, published 2020).

Legend:
IgG [1] = assay: Multiplex bead-based immunoassay (Luminex): IgG levels (nMFI) against antigens, compared between groups; assay type: binding, pregnant women; conditions: for Immunoreactivity: recognition by IgGs at levels above BSA recognition: 641 pregnant Mozambican women 2003-2012, mean nMFI above mean BSA nMFI plus 3 SD; for Infection during pregnacy Infection vs no-infection ratio (95% CI): Mozambican women followed 2011-2012; for Exposure dependence Decrease 2010 vs 2003-2005 Ratio (95% CI) / Exposure dependence Increase 2011-2012 vs 2010 Ratio (95% CI): nMFI ratio at delivery, Mozambique, adjusted by parity, age, treatment and HIV; for PW Mz vs PW Bcn Ratio (95% CI) / Parasite density Low vs High ratio (95% CI): nMFI ratio; for PW Mz vs PW Bcn Ratio (95% CI): pregnant Mozambican women vs pregnant Spanish women (N=49); for Parasite density Low vs High ratio (95% CI): below or above 200 genomes per microliter
Source text: (§1) Two multiplex suspension array panels were constructed to quantify IgG responses against P. falciparum recombinant proteins and synthetic peptides, using the xMAP™ technology and the Luminex® 100/200™ System (Luminex® Corp., Austin, Tex.). MagPlex® microspheres (magnetic carboxylated polystyrene microparticles, 5.6 μm) with different spectral signatures were selected for each protein (DBL3X, DBL5ϵ, DBL6ϵ, AMA1 and MSP119), peptides (25 VAR2CSA peptides and pCSP), tetanus toxin and bovine serum albumin (BSA). Antigens were covalently coupled to beads following a modification of the Luminex® Corporation protocol. Protein and peptide multiplex arrays were prepared by pooling together equal volumes of coated beads. Plasma samples or the product of DBS elution were analyzed in duplicate at dilution 1:400 for the protein array and 1:100 for the peptide array. A hyperimmune plasma pool composed by 23 plasmas from malaria infected Mozambican pregnant women (HIP-VAR2CSA) was included in each assay plate, in addition to blanks (wells without sample) to assess background levels. A minimum of 50 microspheres were read per spectral signature and results were exported as crude median fluorescent intensity ([…]). Duplicates were averaged and background MFIs were subtracted. A total of 224 plates were analyzed and the intra-assay variation (mean CV of replicates from 20 plasma samples per plate) ranged from 1.4% to 7.3% for the protein array and from 2.5% to 12.4% for the peptide array. The inter-assay variation (variability of positive pool [HIP-VAR2CSA] between 224 plates) was 5% for the protein array and 26% for the peptide array. Results were normalized (nMFI) to account for plate-to-plate variation by […] the background subtracted MFI of each sample with the value of the positive pool in the same plate and dividing by the median of positive pools in all plates.
(§2) Antibodies were eluted from DBS from Gabon, […] and Kenya, as previously described. Briefly, to achieve a concentration of eluted blood proteins equivalent to a 1:50 plasma dilution antibodies were eluted from four spots of approximately 3 mm in diameter with 200 μl Luminex® assay buffer (1% BSA, 0.05% sodium azide in filtrated PBS [Phosphate-buffered saline]). […]. Controls blood drops were artificially prepared using fresh erythrocytes (blood type 0, assuming a hematocrit approximately of 50%) and freeze plasma from 49 Spanish pregnant women. Filter papers were stored avoiding humidity at −20° C. in Barcelona.
(§3) Presence or absence of antibodies was defined by finite mixture models (FMM) for pregnancy-specific antigens (VAR2CSA peptides and recombinant domains) and by the mean plus 3 standard deviation (SD) of IgG response from pregnant women from Barcelona for general malaria antigens (AMA1, MSP119, and pCSP).
(§4) Data was fitted to a normal distribution by logarithmic transformation of nMFIs. Participant's baseline characteristics and parasitological outcomes were compared between study times and areas by univariate analysis (Fisher's tests for binary outcomes or t-Student test for continuous outcomes). Responses were considered not restricted to malaria when seroprevalences were 5% or high among Spanish pregnant women.
Linear regression models were used to compare antibody levels from Mozambican and Spanish pregnant women. The capacity of antibody levels to mimic malaria trends in Mozambique was analyzed by linear regression models (2010 was compared with 2003-2005 corresponding to a trend of malaria decrease and 2011-2012 with 2010 to a trend of increase) adjusted by treatment, parity, age and HIV.
The impact of P. falciparum infection during pregnancy on antibodies at delivery was assessed in linear regression models adjusted by age, parity, HIV and treatment. Changes in antibody levels due to parasite density (below or above 200) were assessed by linear regression models adjusted by age, parity, HIV and treatment. […]

IgG [2] = assay: Multiplex bead-based immunoassay: seroprevalence (finite mixture models or negative control cutoff); assay type: binding, pregnant women; conditions: for SeroPrev Delivery %: 239 pregnant Mozambican women followed 2011-2012; for Seroprevalence MQ (%): IPTp with mefloquine; for Seroprevalence K (%): Kenya; for Seroprevalence K (%) / Seroprevalence M (%) / Seroprevalence B (%) / Seroprevalence G (%): at delivery; for MQ (OR): Placebo as reference; for M (OR) / Seroprevalence M (%): Mozambique; for Seroprevalence PL (%): Placebo group; for Seroprevalence A (%) / A (OR): anemia; for A (OR): Non-A as reference; for Seroprevalence Non-A (%): non anemia; for Seroprevalence B (%): Benin; for G (OR) / Seroprevalence G (%): Gabon; for Seroprevalence SP (%): IPTp with sulfadoxine-pyrimethamine; for SP (OR): MQ as reference; for SeroPrev PW Bcn (%): seroprevalence among pregnant Spanish women never exposed to malaria; for Decrease (OR): seroprevalence odds ratio 2010 vs 2003/5, Mozambique; for Decrease (OR) / Increase (OR): adjusted; for Increase (OR): seroprevalence odds ratio 2011/12 vs 2010, Mozambique
Source text: as §1, §2, §3, §4
Seroprevalences between countries (Benin, Gabon and Mozambique for HIV-uninfected and Kenya and Mozambique for HIV-infected), between IPTp intervention group (MQ vs SP for HIV-uninfected and MQ vs Placebo for HIV infected) and anemia status were compared by logistic regression models adjusted by parity, age and treatment.
The modification of the associations by HIV infection or parity was assessed by including interaction terms into the regression models.

IgG [3] = assay: Antibody dynamics during pregnancy (time to double, half-life, sero-reversion) from bead-based immunoassay; assay type: binding, pregnant Mozambican women; conditions: for Antibody dynamics Time to double weeks (95% CI): women with P. falciparum infection on follow-up, log-linear mixed-effects model
Source text: as §1
The adjusted effect of infection on antibody levels was analyzed using log-linear mixed-effects regression models incorporating Gaussian random intercepts. […] Time to double the antibody levels (T2x) and half-lives were calculated in weeks from the estimated rates and the boundaries at 95% confidence interval obtained from mixed-effects models for subjects suffering a P. falciparum infection at follow-up independent of antibody status at recruitment (Ab[−or+]/Pf+) and subjects seropositive at recruitment and no infection detected on follow-up (Ab+/Pf−), respectively. In situations that the increase rate is a negative value (rate below 1) or the decay rate is a positive value (rate above 1), the calculated T2x or half-life was reported as infinity. Similarly, the time to sero-reversion was calculated for these subjects using the ratio of the seropositivity cutoff by the average antibody titers at recruitment as decay, i.e. how many times the average titers need to be reduced to be equal the cutoff.

[4] = HIV infected, Kenya as reference
[5] = HIV uninfected, Benin as reference
[6] = Mozambican pregnant women at delivery

B1: pcsp: circumsporozoite peptide of 64 aminoacids (NVDP[NANP]15) (peptide)
peptide: NVDPNANPNANPNANPNANPNANPNANPNANPNANPNANPNANPNANPNANPNANPNANPNANP
IgG [1]
  Immunoreactivity: recognition by IgGs at levels above BSA recognition: above BSA recognition
  Exposure dependence Decrease 2010 vs 2003-2005 Ratio (95% CI): 0.49 (0.34; 0.71)
  Exposure dependence Increase 2011-2012 vs 2010 Ratio (95% CI): 1.1 (0.80; 1.52)
  PW Mz vs PW Bcn Ratio (95% CI): 8.2 (4.84; 13.87)
IgG [1]; nMFI at delivery, adjusted
  Infection during pregnacy Infection vs no-infection ratio (95% CI): 3.1 (1.75; 5.49)
IgG [1]; adjusted
  Parasite density Low vs High ratio (95% CI): 1.81 (0.75; 4.37)
IgG [2]
  SeroPrev Delivery %: 64%
  SeroPrev PW Bcn (%): 10%
  Decrease (OR): 0.43 (0.27; 0.69)
  Increase (OR): 1.19 (0.80; 1.78)
IgG [2]; HIV infected
  Seroprevalence MQ (%): 12%
  Seroprevalence K (%): 21%
  MQ (OR): 0.69 (0.44; 1.07)
  Seroprevalence M (%): 10%
  Seroprevalence PL (%): 17%
  Seroprevalence A (%): 12%
  A (OR): 0.86 (0.52; 1.41)
  Seroprevalence Non-A (%): 17%
IgG [2]; [4]
  M (OR): 0.41 (0.26; 0.64)
IgG [2]; HIV uninfected
  Seroprevalence B (%): 44%
  Seroprevalence G (%): 23%
  Seroprevalence MQ (%): 31%
  Seroprevalence SP (%): 34%
  Seroprevalence M (%): 13%
  SP (OR): 1.08 (0.84; 1.38)
  Seroprevalence A (%): 34%
  A (OR): 1.19 (0.94; 1.51)
  Seroprevalence Non-A (%): 31%
IgG [2]; [5]
  G (OR): 0.37 (0.24; 0.57)
  M (OR): 0.19 (0.14; 0.26)
IgG [2]; [6]
  Seroprevalence 2003/4 (%): 48%
  Seroprevalence 2005 (%): 57%
  Seroprevalence 2010 (%): 36%
  Seroprevalence 2011 (%): 40%
  Seroprevalence 2012 (%): 46%
IgG [3]
  Antibody dynamics Time to double weeks (95% CI): 51.33 (22.30; ∞) weeks

B2: MSP119: recombinant merozoite surface protein-1, 19-kDa, from 3D7 strain (protein)
chain: NISQHQCVKKQCPENSGCFRHLDEREECKCLLNYKQEGDKCVENPNPTCNENNGGCDADATCTEEDSGSSRKKITCECTKPDSYPLFDGIFCS
IgG [1]
  Immunoreactivity: recognition by IgGs at levels above BSA recognition: above BSA recognition
  Exposure dependence Decrease 2010 vs 2003-2005 Ratio (95% CI): 0.43 (0.28; 0.65)
  Exposure dependence Increase 2011-2012 vs 2010 Ratio (95% CI): 0.88 (0.60; 1.30)
  PW Mz vs PW Bcn Ratio (95% CI): 85.07 (46.72; 154.9)
IgG [1]; nMFI at delivery, adjusted
  Infection during pregnacy Infection vs no-infection ratio (95% CI): 3.69 (1.83; 7.46)
IgG [1]; nMFI at delivery, multigravid vs primigravid Mozambican women, adjusted
  Parity MG vs PG ratio (95% CI): 1.6 (0.6; 4.29)
IgG [1]; adjusted
  Parasite density Low vs High ratio (95% CI): 2.55 (0.98; 6.63)
IgG [2]
  SeroPrev Delivery %: 89%
  SeroPrev PW Bcn (%): 4%
  Decrease (OR): 0.81 (0.31; 2.14)
  Increase (OR): 0.37 (0.19; 0.74)
IgG [2]; HIV infected
  Seroprevalence MQ (%): 85%
  Seroprevalence K (%): 88%
  MQ (OR): 0.84 (0.54; 1.32)
  Seroprevalence M (%): 85%
  Seroprevalence PL (%): 87%
  Seroprevalence A (%): 85%
  A (OR): 0.90 (0.56; 1.45)
  Seroprevalence Non-A (%): 87%
IgG [2]; [4]
  M (OR): 0.73 (0.46; 1.16)
IgG [2]; HIV uninfected
  Seroprevalence B (%): 99%
  Seroprevalence G (%): 84%
  Seroprevalence MQ (%): 94%
  Seroprevalence SP (%): 94%
  Seroprevalence M (%): 89%
  SP (OR): 1.02 (0.63; 1.66)
  Seroprevalence A (%): 94%
  A (OR): 0.95 (0.60; 1.51)
  Seroprevalence Non-A (%): 95%
IgG [2]; [5]
  G (OR): 0.08 (0.04; 0.18)
  M (OR): 0.13 (0.07; 0.26)
IgG [2]; HIV-uninfected women, area of Tanzania where no malaria infection was observed
  Seroprevalence in Tanzania: 48%
IgG [2]; Mozambican pregnant women at delivery, 2003-2005 pooled
  Seroprevalence in 2003-2005: 94%
IgG [2]; [6]
  Seroprevalence 2003/4 (%): 90%
  Seroprevalence 2005 (%): 99%
  Seroprevalence 2010 (%): 94%
  Seroprevalence 2011 (%): 84%
  Seroprevalence 2012 (%): 90%
IgG [2]; Mozambican pregnant women at delivery, 2011-2012 pooled
  Seroprevalence in 2011-2012: 87%
IgG [3]; time to sero-negativisation, seropositive at recruitment, no infection on follow-up
  Antibody dynamics Sero-revertion weeks (95% CI): 385.42 (207.36; 2728.50) weeks
IgG [3]
  Antibody dynamics Time to double weeks (95% CI): 31.69 (15.65; ∞) weeks
